From US20060068482A1 (Dana-Farber, published 2006)
Where a chain is given by its changes, count along the chain named. In names and notes the source's numbering stands.

Columns and labels:
[1] = biological target: T1, p75 MLL test substrate, wild type (MLL aa 2,400 to 2,900, N-terminal Myc tag, C-terminal Flag tag), Q03164
T1 chain: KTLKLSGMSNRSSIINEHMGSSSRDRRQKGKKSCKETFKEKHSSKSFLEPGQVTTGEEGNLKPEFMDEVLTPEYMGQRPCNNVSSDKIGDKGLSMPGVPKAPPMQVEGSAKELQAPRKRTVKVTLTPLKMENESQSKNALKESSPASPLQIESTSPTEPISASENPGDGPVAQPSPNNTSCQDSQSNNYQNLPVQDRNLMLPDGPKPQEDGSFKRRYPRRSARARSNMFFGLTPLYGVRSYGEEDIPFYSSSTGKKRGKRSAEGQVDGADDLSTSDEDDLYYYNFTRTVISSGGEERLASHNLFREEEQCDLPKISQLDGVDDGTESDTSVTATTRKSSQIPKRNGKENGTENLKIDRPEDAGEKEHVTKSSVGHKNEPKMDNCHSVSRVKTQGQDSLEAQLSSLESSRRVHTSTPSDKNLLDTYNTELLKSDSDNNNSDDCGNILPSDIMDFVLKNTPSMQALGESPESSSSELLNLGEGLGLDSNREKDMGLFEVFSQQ

[2] = biological target: T2, p75 MLL substrate with mutant CS1/CS2 sites (MLL aa 2,400 to 2,900 of noncleavable MLL mt, Myc/Flag tagged), Q03164
T2 chain: T1 chain with D267A, G268A, D319A, G320A

[3] = biological target: T3, His-tagged 28 kDa alpha subunit of recombinant Taspase1 (human, UniProt Q9H6P5 1-233); assay: co-purification on a TALON column of N-terminal His-tagged Taspase1 from E. coli, Coomassie-stained SDS-PAGE, Edman degradation of the 22 kDa band
T3 construct: also called 28 kDa N-terminal alpha subunit; 29 kDa alpha; not shown: N-terminal His tag from bacterial expression vector ET15b (Novagen)
T3 sequence: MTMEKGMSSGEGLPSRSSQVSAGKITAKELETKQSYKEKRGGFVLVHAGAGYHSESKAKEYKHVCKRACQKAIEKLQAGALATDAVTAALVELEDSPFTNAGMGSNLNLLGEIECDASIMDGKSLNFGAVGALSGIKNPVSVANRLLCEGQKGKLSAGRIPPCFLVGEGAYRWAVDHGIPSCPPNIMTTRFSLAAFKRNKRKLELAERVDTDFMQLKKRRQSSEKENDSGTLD
From the text: Purification of recombinant N-terminal His-tagged Taspase1 yielded an expected 50 kDa product, a His-tagged 28 kDa a subunit, and a co-purified 22 kDa polypeptide (FIG. 5A). […] Similarly when an N-terminal and C-terminal epitope tagged human Taspase1 cDNA was expressed in the human 293 T cell line, the 50 kDa product also appeared to be processed to a 28 kDa N-terminal α subunit and a 22 kDa C-terminal β subunit (FIG. 3D). […] However, the D233A mutant retained some residual enzymatic activity, although it was ˜1000 fold less efficient than the wt enzyme (FIG. 5B, middle panel). […] Thus, this MLL cleaving protease is the first endopeptidase within the Asparaginase_{—}2 family with the novel characteristic of being a threonine aspartase, Taspase1.
His-tagged Taspase1 was expressed in BL21(DE3) cells and purified with a TALON column (Clontech). N-terminal protein sequencing was performed by Molecular Biology Core Facility at the Dana-Farber Cancer Institute.

B1: Recombinant His-tagged Taspase1 D233A mutant (E. coli) (protein)
chain: MTMEKGMSSGEGLPSRSSQVSAGKITAKELETKQSYKEKRGGFVLVHAGAGYHSESKAKEYKHVCKRACQKAIEKLQAGALATDAVTAALVELEDSPFTNAGMGSNLNLLGEIECDASIMDGKSLNFGAVGALSGIKNPVSVANRLLCEGQKGKLSAGRIPPCFLVGEGAYRWAVDHGIPSCPPNIMTTRFSLAAFKRNKRKLELAERVDTDFMQLKKRRQSSEKENDSGTLATVGAVVVDHEGNVAAAVSSGGLALKHPGRVGQAALYGCGCWAENTGAHNPYSTAVSTSGCGEHLVRTILARECSHALQAEDAHQALLETMQNKFISSPFLASEDGVLGGVIVLRSCRCSAEPDSSQNKQTLLVEFLWSHTTESMCVGYMSAQDGKAKTHISRLPPGAVAGQSVAIEGGVCRLESPVN
in vitro cleavage activity of purified recombinant mutant enzyme [1]: ˜1000 fold less efficient than the wt enzyme

B2: Recombinant His-tagged Taspase1 T234A mutant (E. coli) (protein)
chain: B1 chain with A233D, T234A
in vitro cleavage activity of purified recombinant mutant enzyme [1]: threonine 234 which became the N-terminus of the β subunit is absolutely essential for cleavage activity

B3: Recombinant N-terminal His-tagged Taspase1 (rTaspase1), wild type, expressed in E. coli (protein)
chain 1: T3 sequence
chain 2: TVGAVVVDHEGNVAAAVSSGGLALKHPGRVGQAALYGCGCWAENTGAHNPYSTAVSTSGCGEHLVRTILARECSHALQAEDAHQALLETMQNKFISSPFLASEDGVLGGVIVLRSCRCSAEPDSSQNKQTLLVEFLWSHTTESMCVGYMSAQDGKAKTHISRLPPGAVAGQSVAIEGGVCRLESPVN
in vitro cleavage of 35S-methionine labeled p75 MLL substrate [2]: but not the CS1/2 mt substrate | in vitro cleavage of 35S-methionine labeled p75 MLL substrate [1]: Recombinant Taspase1 (rTaspase1) cleaved the wt p75 MLL | in vitro cleavage, enzyme titration and time course (appearance of p47 and p42 fragments) [1]: The p47 fragment appears first, while higher enzyme concentration or more time is needed for the appearance of the p42 fragment

B4: 22 kDa beta subunit of recombinant Taspase1 (enzyme)
chain: B3 chain 2
notes: also called co-purified 22 kDa polypeptide; 22 kDa C-terminal beta subunit
binding result [3]: binds
